Measurements reported in patent US20220298218A1 (ANTAG THERAPEUTICS, published 2022).
*1 amine or outer side, *2 acyl side, *3 side chain or, on linkers, in order; H or OH if unused. Where no end group is shown, it is not given here. Side-chain parts run from the residue outwards. The star is where a group is joined. C18 diacid = O=C(O)CCCCCCCCCCCCCCCCC(=O)*; C16 diacid = O=C(O)CCCCCCCCCCCCCCC(=O)*; γGlu = O=C(O)[C@H](CCC(=O)[*:2])N[*:1]; AEEA = NCCOCCOCC(=O)O

Target: T1, human GIP receptor (human, UniProt P48546 22-466)
T1 sequence (looked up): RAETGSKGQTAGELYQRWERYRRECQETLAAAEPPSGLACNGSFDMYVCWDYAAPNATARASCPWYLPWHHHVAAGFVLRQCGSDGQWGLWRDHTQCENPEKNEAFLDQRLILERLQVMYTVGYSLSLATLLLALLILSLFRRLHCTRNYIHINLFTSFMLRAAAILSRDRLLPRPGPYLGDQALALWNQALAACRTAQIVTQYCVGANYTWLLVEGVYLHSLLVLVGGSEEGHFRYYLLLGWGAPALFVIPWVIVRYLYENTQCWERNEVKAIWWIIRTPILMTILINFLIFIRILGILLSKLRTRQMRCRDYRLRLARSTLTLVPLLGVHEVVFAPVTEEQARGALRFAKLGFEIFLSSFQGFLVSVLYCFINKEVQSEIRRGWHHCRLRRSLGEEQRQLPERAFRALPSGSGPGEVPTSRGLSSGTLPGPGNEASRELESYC
Assay: cell-based or functional assay

B1: AT440 (peptide)
peptide: SGTFISDYSIAMDRIK([AEEA-AEEA-AEEA-γGlu-C16 diacid])QQDFVNWLLAQRGPSSGAPPPS-OH
modifications: N-terminus assumed
SMILES: CC[C@H](C)[C@H](NC(=O)[C@H](CO)NC(=O)[C@H](Cc1ccc(O)cc1)NC(=O)[C@H](CC(=O)O)NC(=O)[C@H](CO)NC(=O)[C@@H](NC(=O)[C@H](Cc1ccccc1)NC(=O)[C@@H](NC(=O)CNC(=O)[C@@H](N)CO)[C@@H](C)O)[C@@H](C)CC)C(=O)N[C@@H](C)C(=O)N[C@@H](CCSC)C(=O)N[C@@H](CC(=O)O)C(=O)N[C@@H](CCCNC(=N)N)C(=O)N[C@H](C(=O)N[C@@H](CCCCNC(=O)COCCOCCNC(=O)COCCOCCNC(=O)COCCOCCNC(=O)CC[C@H](NC(=O)CCCCCCCCCCCCCCC(=O)O)C(=O)O)C(=O)N[C@@H](CCC(N)=O)C(=O)N[C@@H](CCC(N)=O)C(=O)N[C@@H](CC(=O)O)C(=O)N[C@@H](Cc1ccccc1)C(=O)N[C@H](C(=O)N[C@@H](CC(N)=O)C(=O)N[C@@H](Cc1c[nH]c2ccccc12)C(=O)N[C@@H](CC(C)C)C(=O)N[C@@H](CC(C)C)C(=O)N[C@@H](C)C(=O)N[C@@H](CCC(N)=O)C(=O)N[C@@H](CCCNC(=N)N)C(=O)NCC(=O)N1CCC[C@H]1C(=O)N[C@@H](CO)C(=O)N[C@@H](CO)C(=O)NCC(=O)N[C@@H](C)C(=O)N1CCC[C@H]1C(=O)N1CCC[C@H]1C(=O)N1CCC[C@H]1C(=O)N[C@@H](CO)C(=O)O)C(C)C)[C@@H](C)CC
  cAMP antagonism: 103 nM
  cAMP antagonism % inhib: 100%
  cAMP antagonism log: -7 log M

B2: AT436 (peptide)
peptide: SGTFISDYSIAMDKIK([AEEA-AEEA-AEEA-γGlu-C16 diacid])QQDFVNWLLAQKGPSSGAPPPS-OH
modifications: N-terminus assumed
SMILES: CC[C@H](C)[C@H](NC(=O)[C@H](CO)NC(=O)[C@H](Cc1ccc(O)cc1)NC(=O)[C@H](CC(=O)O)NC(=O)[C@H](CO)NC(=O)[C@@H](NC(=O)[C@H](Cc1ccccc1)NC(=O)[C@@H](NC(=O)CNC(=O)[C@@H](N)CO)[C@@H](C)O)[C@@H](C)CC)C(=O)N[C@@H](C)C(=O)N[C@@H](CCSC)C(=O)N[C@@H](CC(=O)O)C(=O)N[C@@H](CCCCN)C(=O)N[C@H](C(=O)N[C@@H](CCCCNC(=O)COCCOCCNC(=O)COCCOCCNC(=O)COCCOCCNC(=O)CC[C@H](NC(=O)CCCCCCCCCCCCCCC(=O)O)C(=O)O)C(=O)N[C@@H](CCC(N)=O)C(=O)N[C@@H](CCC(N)=O)C(=O)N[C@@H](CC(=O)O)C(=O)N[C@@H](Cc1ccccc1)C(=O)N[C@H](C(=O)N[C@@H](CC(N)=O)C(=O)N[C@@H](Cc1c[nH]c2ccccc12)C(=O)N[C@@H](CC(C)C)C(=O)N[C@@H](CC(C)C)C(=O)N[C@@H](C)C(=O)N[C@@H](CCC(N)=O)C(=O)N[C@@H](CCCCN)C(=O)NCC(=O)N1CCC[C@H]1C(=O)N[C@@H](CO)C(=O)N[C@@H](CO)C(=O)NCC(=O)N[C@@H](C)C(=O)N1CCC[C@H]1C(=O)N1CCC[C@H]1C(=O)N1CCC[C@H]1C(=O)N[C@@H](CO)C(=O)O)C(C)C)[C@@H](C)CC
  cAMP antagonism: 18 nM
  cAMP antagonism % inhib: 100%
  cAMP antagonism log: -7.7 log M

B3: AT438 (peptide)
peptide: SGTFISDYSIAMDKIK([AEEA-AEEA-AEEA-γGlu-C18 diacid])QQDFVNWLLAQKGPSSGAPPPS-OH
modifications: N-terminus assumed
SMILES: CC[C@H](C)[C@H](NC(=O)[C@H](CO)NC(=O)[C@H](Cc1ccc(O)cc1)NC(=O)[C@H](CC(=O)O)NC(=O)[C@H](CO)NC(=O)[C@@H](NC(=O)[C@H](Cc1ccccc1)NC(=O)[C@@H](NC(=O)CNC(=O)[C@@H](N)CO)[C@@H](C)O)[C@@H](C)CC)C(=O)N[C@@H](C)C(=O)N[C@@H](CCSC)C(=O)N[C@@H](CC(=O)O)C(=O)N[C@@H](CCCCN)C(=O)N[C@H](C(=O)N[C@@H](CCCCNC(=O)COCCOCCNC(=O)COCCOCCNC(=O)COCCOCCNC(=O)CC[C@H](NC(=O)CCCCCCCCCCCCCCCCC(=O)O)C(=O)O)C(=O)N[C@@H](CCC(N)=O)C(=O)N[C@@H](CCC(N)=O)C(=O)N[C@@H](CC(=O)O)C(=O)N[C@@H](Cc1ccccc1)C(=O)N[C@H](C(=O)N[C@@H](CC(N)=O)C(=O)N[C@@H](Cc1c[nH]c2ccccc12)C(=O)N[C@@H](CC(C)C)C(=O)N[C@@H](CC(C)C)C(=O)N[C@@H](C)C(=O)N[C@@H](CCC(N)=O)C(=O)N[C@@H](CCCCN)C(=O)NCC(=O)N1CCC[C@H]1C(=O)N[C@@H](CO)C(=O)N[C@@H](CO)C(=O)NCC(=O)N[C@@H](C)C(=O)N1CCC[C@H]1C(=O)N1CCC[C@H]1C(=O)N1CCC[C@H]1C(=O)N[C@@H](CO)C(=O)O)C(C)C)[C@@H](C)CC
  cAMP antagonism: 54 nM
  cAMP antagonism % inhib: 100%
  cAMP antagonism log: -7.3 log M

B4: AT426 (peptide)
peptide: SGTFISDYSIAMDRIK([AEEA-AEEA-AEEA-γGlu-C18 diacid])QQDFVNWLLAQRGRRNDW-OH
modifications: N-terminus assumed
SMILES: CC[C@H](C)[C@H](NC(=O)[C@H](CO)NC(=O)[C@H](Cc1ccc(O)cc1)NC(=O)[C@H](CC(=O)O)NC(=O)[C@H](CO)NC(=O)[C@@H](NC(=O)[C@H](Cc1ccccc1)NC(=O)[C@@H](NC(=O)CNC(=O)[C@@H](N)CO)[C@@H](C)O)[C@@H](C)CC)C(=O)N[C@@H](C)C(=O)N[C@@H](CCSC)C(=O)N[C@@H](CC(=O)O)C(=O)N[C@@H](CCCNC(=N)N)C(=O)N[C@H](C(=O)N[C@@H](CCCCNC(=O)COCCOCCNC(=O)COCCOCCNC(=O)COCCOCCNC(=O)CC[C@H](NC(=O)CCCCCCCCCCCCCCCCC(=O)O)C(=O)O)C(=O)N[C@@H](CCC(N)=O)C(=O)N[C@@H](CCC(N)=O)C(=O)N[C@@H](CC(=O)O)C(=O)N[C@@H](Cc1ccccc1)C(=O)N[C@H](C(=O)N[C@@H](CC(N)=O)C(=O)N[C@@H](Cc1c[nH]c2ccccc12)C(=O)N[C@@H](CC(C)C)C(=O)N[C@@H](CC(C)C)C(=O)N[C@@H](C)C(=O)N[C@@H](CCC(N)=O)C(=O)N[C@@H](CCCNC(=N)N)C(=O)NCC(=O)N[C@@H](CCCNC(=N)N)C(=O)N[C@@H](CCCNC(=N)N)C(=O)N[C@@H](CC(N)=O)C(=O)N[C@@H](CC(=O)O)C(=O)N[C@@H](Cc1c[nH]c2ccccc12)C(=O)O)C(C)C)[C@@H](C)CC
  cAMP antagonism: 28 nM
  cAMP antagonism % inhib: 80%
  cAMP antagonism log: -7.6 log M

B5: AT432 (peptide)
peptide: EGTFISDYSIAMDKIK([AEEA-AEEA-AEEA-γGlu-C16 diacid])QQDFVNWLLAQKGPSSGAPPPS-OH
modifications: N-terminus assumed
SMILES: CC[C@H](C)[C@H](NC(=O)[C@H](CO)NC(=O)[C@H](Cc1ccc(O)cc1)NC(=O)[C@H](CC(=O)O)NC(=O)[C@H](CO)NC(=O)[C@@H](NC(=O)[C@H](Cc1ccccc1)NC(=O)[C@@H](NC(=O)CNC(=O)[C@@H](N)CCC(=O)O)[C@@H](C)O)[C@@H](C)CC)C(=O)N[C@@H](C)C(=O)N[C@@H](CCSC)C(=O)N[C@@H](CC(=O)O)C(=O)N[C@@H](CCCCN)C(=O)N[C@H](C(=O)N[C@@H](CCCCNC(=O)COCCOCCNC(=O)COCCOCCNC(=O)COCCOCCNC(=O)CC[C@H](NC(=O)CCCCCCCCCCCCCCC(=O)O)C(=O)O)C(=O)N[C@@H](CCC(N)=O)C(=O)N[C@@H](CCC(N)=O)C(=O)N[C@@H](CC(=O)O)C(=O)N[C@@H](Cc1ccccc1)C(=O)N[C@H](C(=O)N[C@@H](CC(N)=O)C(=O)N[C@@H](Cc1c[nH]c2ccccc12)C(=O)N[C@@H](CC(C)C)C(=O)N[C@@H](CC(C)C)C(=O)N[C@@H](C)C(=O)N[C@@H](CCC(N)=O)C(=O)N[C@@H](CCCCN)C(=O)NCC(=O)N1CCC[C@H]1C(=O)N[C@@H](CO)C(=O)N[C@@H](CO)C(=O)NCC(=O)N[C@@H](C)C(=O)N1CCC[C@H]1C(=O)N1CCC[C@H]1C(=O)N1CCC[C@H]1C(=O)N[C@@H](CO)C(=O)O)C(C)C)[C@@H](C)CC
  cAMP antagonism: 19 nM
  cAMP antagonism % inhib: 92%
  cAMP antagonism log: -7.7 log M

B6: AT416 (peptide)
peptide: EGTFISDYSIAMDKIK([AEEA-AEEA-AEEA-γGlu-C16 diacid])QQDFVNWLLAQKGKKNDW-OH
modifications: N-terminus assumed
SMILES: CC[C@H](C)[C@H](NC(=O)[C@H](CO)NC(=O)[C@H](Cc1ccc(O)cc1)NC(=O)[C@H](CC(=O)O)NC(=O)[C@H](CO)NC(=O)[C@@H](NC(=O)[C@H](Cc1ccccc1)NC(=O)[C@@H](NC(=O)CNC(=O)[C@@H](N)CCC(=O)O)[C@@H](C)O)[C@@H](C)CC)C(=O)N[C@@H](C)C(=O)N[C@@H](CCSC)C(=O)N[C@@H](CC(=O)O)C(=O)N[C@@H](CCCCN)C(=O)N[C@H](C(=O)N[C@@H](CCCCNC(=O)COCCOCCNC(=O)COCCOCCNC(=O)COCCOCCNC(=O)CC[C@H](NC(=O)CCCCCCCCCCCCCCC(=O)O)C(=O)O)C(=O)N[C@@H](CCC(N)=O)C(=O)N[C@@H](CCC(N)=O)C(=O)N[C@@H](CC(=O)O)C(=O)N[C@@H](Cc1ccccc1)C(=O)N[C@H](C(=O)N[C@@H](CC(N)=O)C(=O)N[C@@H](Cc1c[nH]c2ccccc12)C(=O)N[C@@H](CC(C)C)C(=O)N[C@@H](CC(C)C)C(=O)N[C@@H](C)C(=O)N[C@@H](CCC(N)=O)C(=O)N[C@@H](CCCCN)C(=O)NCC(=O)N[C@@H](CCCCN)C(=O)N[C@@H](CCCCN)C(=O)N[C@@H](CC(N)=O)C(=O)N[C@@H](CC(=O)O)C(=O)N[C@@H](Cc1c[nH]c2ccccc12)C(=O)O)C(C)C)[C@@H](C)CC
  cAMP antagonism: 52 nM
  cAMP antagonism % inhib: 90%
  cAMP antagonism log: -7.3 log M
